Reference: article PMC4556617, “Experimental Evidence for a Revision in the Annotation of Putative Pyridoxamine 5'-Phosphate Oxidases P(N/M)P from Fungi” (PLoS ONE, 2015)

B1: Ypr172w (natural protein, S. cerevisiae, UniProt Q06608 1-200, looked up)
chain: MAWTSTLPAHLLNLIKNSKYVHVATCSKDCIPSVALMNYIYVPGEKLFGQTDNKNDYIIFVSPQDTQKFYNIKENPKVALLFHDWIIANNLSVGKESISGTPTPTSIPHEEQRQSELLNLLQELNQAELNQMSASIGGETEIVNPESEESKYYKDLILKANPDAKAFIFEKNTAVVKVRIDNARVSNNENRTMFLSKGKS
notes: expected mass after thrombin digestion 22788 Da; A few residues of the vector probably remain after thrombin cleavage (surmised); also called putative P(N/M)P oxidase; source: E. coli BL21 DE3 Rosetta, purified (His Trap HP, thrombin digestion, Superdex 200 gel filtration); not shown: His-tag, N-terminal, cleaved
B2: Pdx3 (enzyme, S. cerevisiae, UniProt P38075 1-228, looked up)
chain: MTKQAEETQKPIIFAPETYQYDKFTLNEKQLTDDPIDLFTKWFNEAKEDPRETLPEAITFSSAELPSGRVSSRILLFKELDHRGFTIYSNWGTSRKAHDIATNPNAAIVFFWKDLQRQVRVEGITEHVNRETSERYFKTRPRGSKIGAWASRQSDVIKNREELDELTQKNTERFKDAEDIPCPDYWGGLRIVPLEIEFWQGRPSRLHDRFVYRRKTENDPWKVVRLAP
notes: expected mass after thrombin digestion 27189 Da; A few residues of the vector probably remain after thrombin cleavage (surmised); also called P(N/M)P oxidase; pyridoxamine 5'-phosphate oxidase; source: E. coli BL21 DE3 Rosetta, purified (His Trap HP, thrombin digestion, Superdex 200 gel filtration); not shown: His-tag, N-terminal, cleaved
B3: Ylr456w (natural protein, S. cerevisiae, UniProt Q06199 1-204, looked up)
chain: MKLNEQIPKDLLRLIKSSKYVHVATCSSNCIPSVSLMHYIFVSSAETFHKHEYSIEIDCNDYIIFTVFEKSVTFRNVMSNPNVALLFHDWITAKNLTLRKKSVHSKDDFSFVESESTKFNNFLRDLNQSELNQVSATINGIADIVNPNSEESTYYRRLLLTVNPDADIFILGEDTAIIKVNIQKIKVSDMENNTSTYGQTVQPV
notes: Ylr456w, product of the ORF YLR456W of S. cerevisiae (strain BY4741 cDNA), amplified with primers from the ATG to the stop codon, cloned NdeI/BamHI into pET28a; expected mass after thrombin digestion 23574 Da; A few residues of the vector probably remain at the N-terminus after thrombin cleavage (surmised); also called putative P(N/M)P oxidase; source: E. coli BL21 DE3 Rosetta, purified (His Trap …)

Key:
Pdx3 = target: T1, Pdx3 (Saccharomyces cerevisiae, UniProt P38075); experiment: FMN fluorescence quenching titration (Ex […] nm, Em […] nm); size-exclusion chromatography co-elution; format: binding; settings: 1 uM FMN titrated with protein, 25 C, pH 7.4; protein as purified already carries FMN
T1 construct: full-length, synthetic gene in pET28a (NdeI/BamHI), N-terminal His-tag cut by thrombin; E. coli BL21 DE3 Rosetta; 27189 Da; homodimer
T1 sequence (P38075 1-228): B2 chain

[1] = target: the molecule itself; experiment: SEC; analytical size-exclusion chromatography, Superdex 75 3.3/300, 10 uM protein, 10 uL injected, buffer A (20 mM Tris, 150 mM NaCl, 1 mM DTT pH 7.4), tryptophan fluorescence; calibrated with transthyretin tetramers (54 kDa) and chymotrypsin monomers (25 kDa)

Molecule | FMN fluorescence quenching titration (Ex 450 nm, Em 520 nm); size-exclusion chro (Pdx3) | stoichiometry N [1]
Cc1cc2nc3c(=O)[nH]c(=O)nc-3n(C[C@H](O)[C@H](O)[C@H](O)COP(=O)(O)O)c2cc1C [FMN] | Pdx3 produced a clear quenching effect due to FMN binding | –
B1 | – | 2
B2 | – | 2
B3 | – | 2
